Assay results: patent US10245299B2, “Autoassembling peptides for the treatment of pulmonary bulla” (3-D MATRIX, LTD., priority 2014, dated 2019)

Columns and labels:
[1] = Rheology of peptides mixed with cation/anion solutions; format: physicochemical
Description: In a rheological comparison of 2.5% RADA16 and 2.5% RADA16+NaCl, KCl, and CaCl2, solutions of 0.5% RADA16 mixed with 0.005, 0.05, 0.125, 0.25, 0.5, and 1 M NaCl, KCl, and CaCl2 were prepared. The anion, chloride (Cl−), was kept the same to observe the effect of the cations, sodium (Na+), potassium (K+), and calcium (Ca2+). FIG. 21 provides a basic understanding of how varying the cations of a salt solution effects the viscoelastic properties and the stiffness of self-assembling peptides. […] This should be because Ca has […] higher ionic strength than Na and K at the same molar concentrations. Therefore, influence of salts on the peptide solution is more related to their ionic strength rather than their molar concentration, as shown in FIGS. 17-18 and Table 2a-c. In some embodiments, there is a correlation between the properties of the peptide solutions with salts based on the concentration of the salts.
Rheological measurements of stiffness of 2.5% RADA16 and 2.5% RADA16+0.25 M CaCl2 was evaluated.
Rheological measurements of reversibility of 0.5% RADA16 solution with +0.125, 0.25, and 0.5 M CaCl2 were evaluated. Solutions of 0.5% RADA16 mixed with 0.125, 0.25, and 0.5 M CaCl2 were prepared. The structure of the self-assembled peptide solution were disrupted thoroughly by application of mechanical stress through vortexing and sonication. The mixtures were placed at room temperature for 48 hours to allow self-assembly to take place. […] FIG. 23a presents raw rheological data of the peptide solution with salts and the perturbed peptide solution while FIG. 23b provides a comparison of stiffness of the control peptide solution and the perturbed peptide solution.
Rheological measurements of gelation kinetics of 0.5% RADA16+NaCl, KCl, and CaCl2 were evaluated. A solution of 0.5% RADA16 was prepared and gelation kinetics were observed by treatment with several cations (e.g. Na, […], K) and anions (e.g. Cl, CO3, PO4, SO4). It was determined how long it will take for the peptide mixtures to gel and how to control that gelation time by varying the cation/anion type and concentration. […] In vivo and in vitro qualitative experiments and the resulting observations were supportive of these conclusions.
The two gels were: (1) a combination of the self-assembling peptide with a well-known cation/anion solution, Ringer's Solution (pH 5.3), used in the medical field and (2) a combination of the self-assembling peptide with a well-known contrast agent, indigo carmine, which is a dye solution containing sulfate (anion) and sodium (cation) ions. Indigo carmine contains indigoindisulfonate sodium (C16H8N2Na2O8S2), water, and sodium citrate […] for pH adjustment. Using indigo carmine powder, a 1% solution was prepared for use in experimentation. This corresponds to 10 mg/1 ml of water. The concentration of indigo carmine solution used in experimentation was 0.00585% in water.
The rheological comparisons of these mixtures and the visualization of the gels can be observed in FIG. 24a-24c. […] The concentration of the contrast agent or cation/anion mixture and peptide hydrogel that were mixed were based on an understanding of using cations and anions as described herein. […] FIG. 24C presents a comparison of stiffness of RADA16 and RADA16 mixed with Ringer's Solution.

[2] = Rheological properties (storage moduli) of 1% peptides before and after DMEM treatment for 2 minutes; format: physicochemical; conditions: peptides 1%, compared between peptides
Description: The effects of Dulbecco's modified Eagle's medium (DMEM) (pH 7.4) on the rheological properties of IEIK13, KLD12, and PuraMatrix® were evaluated on a rheometer (AR500, TA Instruments) with 40 mm plates. DMEM is generally a cell culture medium that contains 6.4 g/L of NaCl, 3.4 g/L NaHCO3 (sodium bicarbonate), minor amounts of other salts, various amino acids, and 4.5 g/L of glucose. The pH level of DMEM is generally 7.2±0.2 and the osmolality is 335±30 mOsm/Kg H2O; both measurements are close to human physiological fluids such as blood.
Peptide solutions (1%) were kept at 4° C. for at least 48 hours before testing. To perform the experiment, 1 mL of peptide solution was gently pipetted and placed on the plate of the rheometer. 2 mL of DMEM solution was gently added around the peptide solution. The peptide solution was treated with DMEM for two minutes, then the media was removed, and the plates were placed at a measuring geometry gap at around 450 μm. Measurements were performed at 37° C. after 2 min of relaxation time. Frequency tests were performed from 1 rad/s to 100 rad/s at 1 Pa of oscillation stress.
The rheological properties of the peptides (1%) were compared before and after DMEM treatment for 2 minutes, as shown in FIG. 1A. […]

[3] = tested on: pulmonary bulla; test: Filling of pulmonary bulla cavity through connecting bronchioles before collapse; conditions: 1.0% RADA16 with 0.00585% indigo carmine
Description: A method for pulmonary bullae treatment using peptide hydrogel systems distinct from the method discussed in Example 19 was tested. Here, the pulmonary bullae are generally filled prior to collapse.
The pulmonary bulla cavity was filled with 1.0% RADA16 through the connecting bronchioles using an endotracheal tube inserted through the primary bronchus and into the lung. The bulla was then collapsed to remove the pocket of trapped air. 1.0% RADA16 mixed with 0.00585% indigo carmine was used here for visualization of the hydrogel spreading into the bullae cavity.

[4] = tested on: pulmonary bullae; test: Burst pressure of hydrogels as air sealants on collapsed pulmonary bullae of swine lungs
Excerpt: Swine lungs were obtained from freshly euthanized pigs. An endotracheal tube was inserted through the trachea and primary bronchus into the lung of interest. Pressure was supplied to the lungs with the use of a manual endotracheal intubation pump. The trachea was tied off to prevent air leakage around the tube. The other primary bronchus of the other lung was clamped to direct all airflow to the lung of interest. A manometer was used to measure the pressure of air directed into the lungs to induce expansion.
The self-assembling peptide hydrogels were comprised of Ac-RADARADARADARADA-NH2 (SEQ ID NO: 1) (i.e. RADA16) and Ac-IEIKIEIKIEIKI-NH2 (SEQ ID NO: 2) (i.e. IEIK13) with RADA16 used alone or mixed with calcium chloride. If alone, the peptides were reconstituted in deionized water. If, however the peptides were reconstituted with a salt solution, the peptides were reconstituted first in deionized water, and subsequently, a 2× solution of calcium chloride at a previously decided concentration which was mixed in at a 1:1 ratio.
Pulmonary bullae, as depicted in FIG. 25, are naturally occurring weak areas of the pleura. Prior to application of the hydrogels, the bullae were identified and collapsed using a 16 G needle. […]

| Substance | mechanical properties of mixed gel ([1]; 1.5% IEIK13 mixed with 0.00585% indigo carmine) | fold increase of storage modulus after DMEM treatment [2] | gelation kinetics by cation/anion type ([1]; 0.5% RADA16) | reversibility after perturbation ([1]; 0.5% RADA16 with CaCl2 within the optimal salt concentration range, vortexing and sonication, 48 hours at room temperature) | stiffness with added CaCl2 ([1]; 2.5% RADA16 vs 2.5% RADA16 with CaCl2) | effect of cations on stiffness ([1]; RADA16 mixed with 0.005-1 M NaCl, KCl, and CaCl2, same molar concentrations) | mechanical properties of mixed gel ([1]; RADA16 mixed with Ringer's Solution (pH 5.3)) | filling of bullae cavity through the connecting bronchioles [3] | burst pressure compared among formulations ([4]; 2.5% RADA16 mixed with 0.250 M CaCl2) | filling of collapsed bullae cavity, histological analysis ([4]; 2.5% RADA16 with CaCl2) |
| --- | --- | --- | --- | --- | --- | --- | --- | --- | --- | --- |
| Ile-Glu-Ile-Lys-Ile-Glu-Ile-Lys-Ile-Glu-Ile-Lys-Ile [IEIK13] | maintains stiffness, reversibility, and gelation kinetics | lower-fold increase of storage modulus than weaker peptide solutions | – | – | – | – | – | – | – | – |
| Arg-Ala-Asp-Ala-Arg-Ala-Asp-Ala-Arg-Ala-Asp-Ala-Arg-Ala-Asp-Ala [PuraMatrix®] | – | – | Chlorine showed the quickest gelation and sulfate showed the slowest gelation | remained reversible | noticeable increase in stiffness | Ca provided the best enhancement of stiffness | A stiffer gel with faster gelation kinetics that maintains reversibility | completely fill the bullae cavity | best burst pressure | entirely filled the pulmonary bullae cavity |
